In PMC5199193, “Structure of the transporter associated with antigen processing trapped by herpes simplex virus” (eLife, 2016):

Target: T1, transporter associated with antigen processing (TAP), heterodimer of TAP1 and TAP2 (human, UniProt Q03518 1-748; Q03519 1-686)
T1 construct: TAP1, human; TMD0 is in the construct (no density seen for it); TAP2, human; model holds residues 130-681; also called human TAP; source: lysed cells incubated with purified ICP47, solubilised in DDM, purified (IgG Sepharose, Superose 6); not shown: Protein A, C-terminal, cleaved
T1 sequence 1: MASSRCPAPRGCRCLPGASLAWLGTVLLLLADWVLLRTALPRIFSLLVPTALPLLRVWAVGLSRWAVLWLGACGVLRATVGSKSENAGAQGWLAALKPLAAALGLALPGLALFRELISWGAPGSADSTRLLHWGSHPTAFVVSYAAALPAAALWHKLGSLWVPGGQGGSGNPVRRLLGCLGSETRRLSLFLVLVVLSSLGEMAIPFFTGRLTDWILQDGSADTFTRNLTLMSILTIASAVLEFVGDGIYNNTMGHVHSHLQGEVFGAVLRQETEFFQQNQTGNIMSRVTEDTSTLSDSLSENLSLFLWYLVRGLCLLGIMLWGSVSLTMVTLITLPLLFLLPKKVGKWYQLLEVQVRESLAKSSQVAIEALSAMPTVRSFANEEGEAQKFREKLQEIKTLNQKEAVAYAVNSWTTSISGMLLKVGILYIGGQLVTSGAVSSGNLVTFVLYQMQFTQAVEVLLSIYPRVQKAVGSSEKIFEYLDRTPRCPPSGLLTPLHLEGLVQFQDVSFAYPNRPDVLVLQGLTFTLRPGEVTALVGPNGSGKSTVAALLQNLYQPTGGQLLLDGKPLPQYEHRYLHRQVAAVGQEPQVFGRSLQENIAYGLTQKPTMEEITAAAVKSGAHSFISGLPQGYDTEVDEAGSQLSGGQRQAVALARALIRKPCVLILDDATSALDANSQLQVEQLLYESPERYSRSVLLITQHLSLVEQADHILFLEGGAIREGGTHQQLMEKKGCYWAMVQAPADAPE
T1 sequence 2: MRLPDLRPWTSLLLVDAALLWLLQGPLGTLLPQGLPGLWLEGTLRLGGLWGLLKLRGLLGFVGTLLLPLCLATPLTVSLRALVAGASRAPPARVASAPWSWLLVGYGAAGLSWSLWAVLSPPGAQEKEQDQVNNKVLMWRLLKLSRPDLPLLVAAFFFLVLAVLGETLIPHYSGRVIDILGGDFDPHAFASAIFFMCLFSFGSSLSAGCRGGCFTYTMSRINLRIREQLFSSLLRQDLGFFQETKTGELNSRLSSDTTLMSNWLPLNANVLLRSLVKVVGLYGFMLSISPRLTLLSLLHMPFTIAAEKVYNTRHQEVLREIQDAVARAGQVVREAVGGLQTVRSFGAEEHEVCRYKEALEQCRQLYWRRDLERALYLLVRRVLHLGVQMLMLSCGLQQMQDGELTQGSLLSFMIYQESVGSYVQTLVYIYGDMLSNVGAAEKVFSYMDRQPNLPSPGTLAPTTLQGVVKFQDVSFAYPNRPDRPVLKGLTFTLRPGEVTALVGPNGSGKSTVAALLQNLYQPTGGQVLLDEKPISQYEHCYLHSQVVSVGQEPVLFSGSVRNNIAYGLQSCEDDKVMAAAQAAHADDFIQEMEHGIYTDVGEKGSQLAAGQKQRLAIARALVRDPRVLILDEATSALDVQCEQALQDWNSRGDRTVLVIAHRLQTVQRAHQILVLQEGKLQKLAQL
Assay: cryo-EM structure; purified TAP/ICP47 complex (2 mg/ml) in 20 mM Hepes pH 7.4, 150 mM NaCl, 2 mM TCEP, 1 mM DDM, 1 mM C12E8; complex formed by incubating lysed Pichia cells co-expressing TAP1 and TAP2 with purified ICP47; 4.0 Å
Details: both partners purified

B1: ICP47 of herpes simplex virus 1 (natural protein)
chain: MSWALEMADTFLDTMRVGPRTYADVRDEINKRGREDREAARTAVHDPERPLLRSPGLLPEIAPNASLGVAHRRTGGTVTDSPRNPVTR
notes: ICP47, HSV-1; the N-terminal 55 residues are ordered and the C-terminal 33 residues have no density (88 residues together); also called HSV-1 ICP47; source: E. coli, purified via the GST tag
B1: binds.
